Measurements published in US20070225207A1 (NOVOZYMES A S, published 2007).

Target: IgE of dust mite allergic patient Donor 11 (serum IgE; IgE on the donor's basophils in the histamine release …)
Assay: cell-based or functional assay

B1: Der p 1 variant DP060 (S54N, Q68F) (other)
chain: TNACSINGNAPAEIDLRQMRTVTPIRMQGGCGSCWAFSGVAATESAYLAYRNQNLDLAEQELVDCASFHGCHGDTIPRGIEYIQHNGVVQESYYRYVAREQSCRRPNAQRFGISNYCQIYPPNVNKIREALAQTHSAIAVIIGIKDLDAFRHYDGRTIIQRDNGYQPNYHAVNIVGYSNAQGVDYWIVRNSWDTNWGDNGYGYFAANIDLMMIEEYPYVVIL
- potency to induce histamine release in human basophil assay, relative to nDer p 1: 20 fold
